The source of these data is paper PMC11879457 (Nucleic Acids Research, 2025).

The series “SDS-PAGE” concerns the molecule itself. Kind of series: SDS-PAGE.
The series “SEC” concerns the molecule itself. Kind of series: SEC. On the technique in general: SEC sorts molecules by how far they enter the pores of the column.
The target of the next series is T1, YdaTmut (H56A R57A) (Escherichia coli K-12 MG1655 (Rac …, UniProt P76064 1-140, H56A;R57A)).
T1 sequence: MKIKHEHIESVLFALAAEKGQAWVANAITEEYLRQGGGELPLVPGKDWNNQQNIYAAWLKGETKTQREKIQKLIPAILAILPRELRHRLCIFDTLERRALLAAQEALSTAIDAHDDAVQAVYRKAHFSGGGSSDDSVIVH
Kind of series: DNase I footprinting.

The next series addresses T2, YdaT (Rac prophage) (Escherichia coli K-12 MG1655 (Rac …, UniProt P76064 1-140)).
T2 sequence: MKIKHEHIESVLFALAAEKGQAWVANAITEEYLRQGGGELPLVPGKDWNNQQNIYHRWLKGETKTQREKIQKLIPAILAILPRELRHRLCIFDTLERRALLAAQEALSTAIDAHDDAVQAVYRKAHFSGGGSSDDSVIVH
The experiment in a line: DNase I footprinting.

B1: N-terminally 6x His-tagged YdaT, wild type (Rac prophage transcription factor) (natural protein, E. coli K-12 (Rac prophage), UniProt P76064 1-140, looked up)
chain: MKIKHEHIESVLFALAAEKGQAWVANAITEEYLRQGGGELPLVPGKDWNNQQNIYHRWLKGETKTQREKIQKLIPAILAILPRELRHRLCIFDTLERRALLAAQEALSTAIDAHDDAVQAVYRKAHFSGGGSSDDSVIVH
As to B1, the entries for the “stoichiometry N” value in the series “SDS-PAGE” and in “SEC” were 2 and 4, respectively.

B2: IGR footprint substrate (165 bp) (dsDNA)
DNA 1: GCGCATTACATTAGGCAATCCCTACCCTTACTGCATTAGGCACAGCCTATTGACAATTGCGTTAGGCGTCGCCTAATATTTCTGTGTGTTTTTGGAGTTCATTCGATGAAAAAAGAGAACTATTCATTCAAGCAAGCTTGTGCTGTTGTCGGTGGGCAATCAGCA
DNA 2: TGCTGATTGCCCACCGACAACAGCACAAGCTTGCTTGAATGAATAGTTCTCTTTTTTCATCGAATGAACTCCAAAAACACACAGAAATATTAGGCGACGCCTAACGCAATTGTCAATAGGCTGTGCCTAATGCAGTAAGGGTAGGGATTGCCTAATGTAATGCGC
As to B2, the binding result with YdaTmut (H56A R57A) is on record as “no binding”; with YdaT (Rac prophage), “binds”.
